Publication PMC4999211, “Amlexanox Blocks the Interaction between S100A4 and Epidermal Growth Factor and Inhibits Cell Proliferation” (PLoS ONE, 2016)

Target: T1, mutant S100A4 (C3S, C76S, C81S, C86S) (human, UniProt P26447 1-101, C3S | C76S | C81S | C86S)
T1 construct: human S100A4 with all four cysteines mutated to serines; residue numbers 1-101 in the HSQC bar graph; 15N-labelled where it was the observed protein in HSQC; No tag is named; also called mS100A4; quadruple mutant S100A4; source: E. coli BL21 (DE3), pET21b, purified (ammonium sulfate, Hi-Prep Q XL, Hi-Prep Phenyl FF, Superdex 75)
T1 sequence (P26447 whole entry C3S/C76S/C81S/C86S, one chain of several): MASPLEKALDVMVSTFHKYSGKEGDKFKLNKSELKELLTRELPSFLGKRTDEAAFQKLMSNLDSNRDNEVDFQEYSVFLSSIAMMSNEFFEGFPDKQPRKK
Test: other fluorescence titration; intrinsic tryptophan fluorescence of EGF (8 uM), excitation 295 nm, emission at 345 nm; mS100A4 added at 0-22 uM; double-reciprocal plot, one-site binding model
Settings: both partners purified

- Kd: 5.2 µM
B1: human epidermal growth factor (ligand, UniProt P01133 971-1023, looked up)
chain: NSDSECPLSHDGYCLHDGVCMYIEALDKYACNCVVGYIGERCQYRDLKWWELR
notes: human epidermal growth factor, the mature hormone cut from pro-EGF; three disulfide bonds; 15N-labelled where it was the observed protein in HSQC; also called EGF; recombinant EGF
